Reference: US20050049403A1 (CAMBRIDGE ANTIBODY TECHNOLOGY, published 2005)

Columns and labels:
recombinant human TGFβ2 [1] = target: T1, recombinant human TGFβ2 (human, UniProt P61812 303-414); assay: cell-based or functional assay
T1 sequence (looked up): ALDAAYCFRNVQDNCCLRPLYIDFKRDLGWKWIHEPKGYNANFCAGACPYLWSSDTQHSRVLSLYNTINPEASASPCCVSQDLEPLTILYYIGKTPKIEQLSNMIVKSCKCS

recombinant human TGFβ2 [2] = target: T1, recombinant human TGFβ2; assay: A549 cell radioreceptor assay (nM IgG)
Description: (§1) Aliqouts of ¹²⁵I-TGFβ1 or TGFβ2 (70-90 TBq/mmol; Amersham International) at 20 pM are preincubated with antibody in binding medium at room temperature for 1 h. Duplicate samples of 0.5 ml of TGFβ/antibody mixtures are then added to the cell monlayers and are incubated at 37° C. for 1-2 h. Control wells contain TGFβ only. Unbound TGFβ is removed by washing 4 times with Hank's balanced salt solution containing 0.1% BSA. Cells are solubilised in 0.8 ml 25 mM Tris HCl pH 7.5, 10% glycerol, 1% Triton X-100 at room temperature for 20 min. The contents of each well are removed and ¹²⁵I measured in a gamma counter.
(§2) The ability of 6B1 IgG4 to inhibit binding of TGFβ isoforms to receptors was measured in a radioreceptor assay as described in example 4.

[3] = target: irrelevant peptide …; assay: BIACore, peptide at 745 µM (1 mg/ml) over immobilised 6B1 IgG4 (5000RU)
[4] = target: oxazolone-bovine serum albumin (bovine, UniProt P02769 25-607, oxazolone hapten coupled, sites not stated); assay: ELISA, antigen coated at 10 µg/ml, anti-human Fc alkaline phosphatase conjugate, OD405 nm [a]
Chain of oxazolone-bovine serum albumin (P02769 25-607 limits assumed): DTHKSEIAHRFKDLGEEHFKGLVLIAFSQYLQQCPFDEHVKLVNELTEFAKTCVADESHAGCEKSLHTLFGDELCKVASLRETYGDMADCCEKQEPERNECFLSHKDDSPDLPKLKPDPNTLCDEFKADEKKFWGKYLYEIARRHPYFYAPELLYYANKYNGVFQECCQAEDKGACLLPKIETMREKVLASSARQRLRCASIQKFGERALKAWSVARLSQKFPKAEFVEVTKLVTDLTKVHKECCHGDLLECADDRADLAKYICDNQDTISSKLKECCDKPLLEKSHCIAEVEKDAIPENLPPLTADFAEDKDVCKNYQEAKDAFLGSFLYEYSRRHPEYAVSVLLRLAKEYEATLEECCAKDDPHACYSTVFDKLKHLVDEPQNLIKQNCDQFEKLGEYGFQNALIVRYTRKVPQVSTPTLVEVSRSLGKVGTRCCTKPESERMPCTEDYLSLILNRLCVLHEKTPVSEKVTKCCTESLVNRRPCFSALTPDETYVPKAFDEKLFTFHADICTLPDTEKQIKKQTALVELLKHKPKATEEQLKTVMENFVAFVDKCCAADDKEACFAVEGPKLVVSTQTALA
Description: (§3) For both FIG. 13(a) and FIG. 13(b), antigens 1 to 15 were used for coating the plate at a concentration of 10 μg/ml in PBS. The TGFbetas were coated at 0.2 μg/ml in PBS. Coating was performed at 4° C. overnight. […] of each antigen was used per well and duplicates of each antigen for each IgG to be tested. IgG samples were incubated with the coated antigens at 37° C. for 2 hours after blocking with 2%. marvel-PBS. The labelled second antibody was a mouse anti-human Fc1 alkaline phosphatase conjugated and the substrate used to detect bound second antibody was PNPP at 1 mg/ml with the absorbance read at 405 nm.

[5] = target: T2, chicken egg white trypsin inhibitor (chicken, UniProt P01005 25-210); assay: as above
T2 sequence (looked up): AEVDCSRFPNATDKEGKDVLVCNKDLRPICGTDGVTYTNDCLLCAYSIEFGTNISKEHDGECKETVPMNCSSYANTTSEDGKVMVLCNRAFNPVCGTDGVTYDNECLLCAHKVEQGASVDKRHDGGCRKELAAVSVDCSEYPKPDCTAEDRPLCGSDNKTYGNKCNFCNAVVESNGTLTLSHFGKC
Description: as §3

recombinant human TGFβ1 = target: T3, recombinant human TGFβ1 (human, UniProt P01137 279-390); assay: A549 cell radioreceptor assay (nM IgG); A549 cell radioreceptor assay; no inhibition up to 400 nM IgG
T3 construct: mature; also called TGFbeta1
T3 sequence (P01137 279-390 limits assumed): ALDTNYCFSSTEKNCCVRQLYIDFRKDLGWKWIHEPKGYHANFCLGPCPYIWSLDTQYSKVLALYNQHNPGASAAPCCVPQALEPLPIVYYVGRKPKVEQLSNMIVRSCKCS
Description: as §1, §2

B1: 6B1 IgG4 (antibody, V domains shown)
VH: EVQLVESGGGVVQPGRSLRLSCAASGFTFSSYGMHWVRQAPGKGLEWVAVIWYDGSNKYYADSVKGRFTISRDNSKNTLYLQMDSLRAEDTAVYYCGRTLESSLWGQGTLVTVSS
VL: SSELTQDPAVSVALGQTVRITCQGDSLRSYYASWYQQKPGQAPVLVIYGKNNRPSGIPDRFSGSSSGNTASLTITGAQAEDEADYYCNSRDSSSTHRGVFGGGTKLTVLG
notes: Whole antibody: human gamma 4 and human lambda constant regions; FITC-labelled in the human tissue study; also called antibody 6B1
Recombinant human TGFβ2 [1]
  IC50 in TF1 neutralisation assay, 6B1 IgG4 from GS/NS0 cell line 5D8-2A6: 1.8 nM
Recombinant human TGFβ2 [2]
  IC50: 0.05 nM
[3]
  amount of binding to 6B1 IgG4 surface, RU: 60.9 RU
[4]
  binding result: no binding
[5]
  binding result: no binding
Recombinant human TGFβ1
  IC50: > 400 nM
